Values quoted from earlier work, collected in publication PMC6239910.

Target: Ube2D3-Ub conjugate (Homo sapiens) (UniProt P61077)
Sequence (P61077 whole entry): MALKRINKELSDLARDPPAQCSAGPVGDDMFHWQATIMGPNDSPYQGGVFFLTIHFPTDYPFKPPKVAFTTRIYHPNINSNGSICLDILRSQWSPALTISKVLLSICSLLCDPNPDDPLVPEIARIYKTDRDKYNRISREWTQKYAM

UHRF1, sequence (Q96T88 whole entry): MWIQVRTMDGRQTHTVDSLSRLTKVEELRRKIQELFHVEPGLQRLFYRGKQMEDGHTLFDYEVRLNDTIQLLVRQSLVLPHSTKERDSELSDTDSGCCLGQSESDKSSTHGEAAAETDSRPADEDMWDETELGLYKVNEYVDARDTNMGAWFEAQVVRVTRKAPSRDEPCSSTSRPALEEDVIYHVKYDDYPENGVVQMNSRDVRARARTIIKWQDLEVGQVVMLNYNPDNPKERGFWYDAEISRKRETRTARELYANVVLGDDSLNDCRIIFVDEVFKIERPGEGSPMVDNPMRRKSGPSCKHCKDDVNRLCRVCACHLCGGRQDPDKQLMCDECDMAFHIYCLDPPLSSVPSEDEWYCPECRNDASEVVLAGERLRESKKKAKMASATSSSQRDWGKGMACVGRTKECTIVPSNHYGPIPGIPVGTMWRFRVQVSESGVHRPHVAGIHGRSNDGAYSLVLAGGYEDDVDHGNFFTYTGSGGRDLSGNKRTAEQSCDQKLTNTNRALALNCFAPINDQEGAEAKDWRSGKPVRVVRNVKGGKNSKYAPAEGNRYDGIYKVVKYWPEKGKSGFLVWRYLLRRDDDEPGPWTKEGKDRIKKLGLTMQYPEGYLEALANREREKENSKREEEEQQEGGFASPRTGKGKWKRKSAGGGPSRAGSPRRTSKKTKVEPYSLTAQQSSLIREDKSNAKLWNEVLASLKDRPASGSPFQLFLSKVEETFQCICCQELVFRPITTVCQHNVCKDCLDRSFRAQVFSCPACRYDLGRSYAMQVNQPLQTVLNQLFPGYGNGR

Kd: 3.2 µM
Substance: UHRF1 (from UniProt Q96T88)
